What is called stoichiometry N is a count of units in the complex or per binding partner.

Our source for the stoichiometry N values is paper PMC8276117.

The assay has as its target eHSP90α-His6 (secreted from HEK293) (human) (UniProt P07900). As to the kind of experiment: native gel or EMSA.

Regarding “eHSP90α-His6 (secreted from HEK293) (from UniProt P07900 1-732) (natural protein)”, the stoichiometry N amounted to 2.
